Results as given in patent publication US20260232732A1 (FUNDACI INSTITUT DE RECERCA CONTRA LA LEUC MIA JOSEP …, published 2026).
Where no end group is shown, it is not given here. The star is where a group is joined. Biotin = O=C1N[C@H]2[C@H](CS[C@H]2CCCCC(=O)*)N1

T1: naked peptide 1a MTPTDFTSPIPNMADDYGSESTSS (human)
T1 construct: also called region 1-24
T1 peptide: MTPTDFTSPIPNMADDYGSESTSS

T2: naked peptide 1b MEDYVNFNFTDFYCEKNNVRQFAS (human)
T2 construct: also called region amino acids 25 to 48
T2 peptide: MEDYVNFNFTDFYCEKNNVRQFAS

T3: naked peptide MTPTDFTSPI (human)
T3 peptide: MTPTDFTSPI

T4: naked peptide TDFTSPIPNM (human)
T4 peptide: TDFTSPIPNM

T5: naked peptide TSPIPNMADD (human)
T5 peptide: TSPIPNMADD

T6: naked peptide IPNMADDYGS (human)
T6 peptide: IPNMADDYGS

T7: naked peptide MADDYGSEST (human)
T7 peptide: MADDYGSEST

T8: naked peptide DYGSESTSSM (human)
T8 peptide: DYGSESTSSM

T9: naked peptide SESTSSMEDY (human)
T9 peptide: SESTSSMEDY

T10: naked peptide TSSMEDYVNF (human)
T10 peptide: TSSMEDYVNF

T11: naked peptide SSMEDYVNFN (human)
T11 peptide: SSMEDYVNFN

T12: naked peptide SMEDYVNFNF (human)
T12 peptide: SMEDYVNFNF

T13: naked peptide MEDYVNFNFT (human)
T13 peptide: MEDYVNFNFT

T14: naked peptide YVNFNFTDFY (human)
T14 peptide: YVNFNFTDFY

T15: naked peptide FNFTDFYCEK (human)
T15 peptide: FNFTDFYCEK

T16: naked peptide TDFYCEKNNV (human)
T16 peptide: TDFYCEKNNV

T17: naked peptide YCEKNNVRQF (human)
T17 peptide: YCEKNNVRQF

T18: naked peptide KNNVRQFAS (human)
T18 peptide: KNNVRQFAS

T19: Pep1-48, N-terminal domain 1 of CCR9, amino acids 1 to 48 (human)
T19 construct: Chemically synthesized (Genscript), purity >75%; also called CCR9 N-terminal 1-48 peptide
T19 peptide: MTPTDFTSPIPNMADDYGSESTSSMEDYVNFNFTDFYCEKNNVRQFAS

T20: biotin-peptide TDFTSPIPNM (human)
T20 peptide: Biotin-TDFTSPIPNM

T21: biotin-peptide TSPIPNMADD (human)
T21 peptide: Biotin-TSPIPNMADD

T22: biotin-peptide IPNMADDYGS (human)
T22 peptide: Biotin-IPNMADDYGS

T23: biotin-peptide TSSMEDYVNF (human)
T23 peptide: Biotin-TSSMEDYVNF

T24: biotin-peptide SSMEDYVNFN (human)
T24 peptide: Biotin-SSMEDYVNFN

T25: biotin-peptide YCEKNNVRQF (human)
T25 peptide: Biotin-YCEKNNVRQF

B1: Comparative antibody 3 (Comp-3) scFv, SR_92R (Somovilla-Crespo et al. 2018), His-tagged (scFv)
scFv: EVKLEESGGGLVQPGGSMKLSCVASGFTFNKFWMNWVRQSPEKGLEWVAEIRLKSNNYATHYAESVKGRFTISRDDSKSSVYLQMNNLRAEDTGIYYCASDGWFAYWGQGTLVTVSAGGGGSGGGGSGGGGSGGGGSDVVMTQTPLSLPVSLGDQASISCRSSQSLVHSNGNTYLNWCLQRPGQSPKSLIYKVSNRFSGVPDRFSGSGSGTDFTLKISRVEAEDLGVYFCSQSTHFPRTFGGGTKLEIKRHHHHHH
B2: CCR9_HUM2 scFv (humanized anti-CCR9 scFv, SEQ ID NO: 17 with C-terminal 6xHis tag) (scFv)
scFv: QVQLVQSGAEVKKPGASVKVSCTASGYSFTDYIIYWVKQAHGQSLEWMGYIDPNNYNTRYSQKFQGKVTITVDKSSTSAYMELNSLTSDDTAVYYCARDVYWGQGTTVTVSSGGGGSGGGGSGGGGSGGGGSDVVMTQTPLSLSVTPGQPASISCRSSQSLVHSNGKTYLQWYLQKPGQSPKLLIYKVSNRFSGVPDRFSGSGSGTDFTLKISRVEAEDVGVYFCAQSTHVWTFGGGTKVEIKRAHHHHHH

Key:
[1] = target: T1, naked peptide 1a …; assay: ELISA naked 24-mer; repI
[2] = target: T2, naked peptide 1b …; assay: ELISA naked 24-mer; repI
naked peptide MTPTDFTSPI = target: T3, naked peptide MTPTDFTSPI; assay: ELISA naked peptide; scFv 1 ug/mL; repII
Protocol: (§1) The peptides were synthesized naked or with a N-terminal Biotin modification with a purity of >98%. All four scFvs were verified by ELISA that can be detected with anti-His antibodies. ELISA was performed for scFv-peptide binding validation. Briefly, naked peptides were coated (50 μg/mL) in 0.58M carbonate-bicarbonate buffer pH9.5, 100 μL/well, 4° C. O/N. Then after blocking (3% BSA-PBS, 300 μL/well 37° C. 1.5 h) and washing (PBS+Tween-20 0.05% v/v (0.05% PBST), wells were incubated with each purified scFv antibody at concentration of 1 μg/mL in PBS at 37° C. 1 h. After washing (0.05% PBST), wells were incubated with secondary antibodies (goat anti-His IgG-HRP) in PBS, 37° C., 30 min. After washing, and incubation with TMB substrate, reactions were stopped with 2M HCl and reading was quantified at OD450.
(§2) Then a library of overlapping peptides were designed and constructed separately to produce 16 different peptides, covering full antigen sequence of total 48 aa. Peptide size was 10aa, with 7aa overlapping and ELISA screening of scFv against each peptide was performed in duplicate. Screening was performed using naked peptides in a standard plate or biotinylated peptides using avidin-plates.

naked peptide TDFTSPIPNM = target: T4, naked peptide TDFTSPIPNM; assay: ELISA naked peptide; scFv 1 ug/mL; repII
Protocol: as §1, §2

naked peptide TSPIPNMADD = target: T5, naked peptide TSPIPNMADD; assay: ELISA naked peptide; scFv 1 ug/mL; repII
Protocol: as §1, §2

naked peptide IPNMADDYGS = target: T6, naked peptide IPNMADDYGS; assay: ELISA naked peptide; scFv 1 ug/mL; repII
Protocol: as §1, §2

naked peptide MADDYGSEST = target: T7, naked peptide MADDYGSEST; assay: ELISA naked peptide; scFv 1 ug/mL; repII
Protocol: as §1, §2

naked peptide DYGSESTSSM = target: T8, naked peptide DYGSESTSSM; assay: ELISA naked peptide; scFv 1 ug/mL; repII
Protocol: as §1, §2

naked peptide SESTSSMEDY = target: T9, naked peptide SESTSSMEDY; assay: ELISA naked peptide; scFv 1 ug/mL; repII
Protocol: as §1, §2

naked peptide TSSMEDYVNF = target: T10, naked peptide TSSMEDYVNF; assay: ELISA naked peptide; scFv 1 ug/mL; repII
Protocol: as §1, §2

naked peptide SSMEDYVNFN = target: T11, naked peptide SSMEDYVNFN; assay: ELISA naked peptide; scFv 1 ug/mL; repII
Protocol: as §1, §2

naked peptide SMEDYVNFNF = target: T12, naked peptide SMEDYVNFNF; assay: ELISA naked peptide; scFv 1 ug/mL; repII
Protocol: as §1, §2

naked peptide MEDYVNFNFT = target: T13, naked peptide MEDYVNFNFT; assay: ELISA naked peptide; scFv 1 ug/mL; repII
Protocol: as §1, §2

naked peptide YVNFNFTDFY = target: T14, naked peptide YVNFNFTDFY; assay: ELISA naked peptide; scFv 1 ug/mL; repII
Protocol: as §1, §2

naked peptide FNFTDFYCEK = target: T15, naked peptide FNFTDFYCEK; assay: ELISA naked peptide; scFv 1 ug/mL; repII
Protocol: as §1, §2

naked peptide TDFYCEKNNV = target: T16, naked peptide TDFYCEKNNV; assay: ELISA naked peptide; scFv 1 ug/mL; repII
Protocol: as §1, §2

naked peptide YCEKNNVRQF = target: T17, naked peptide YCEKNNVRQF; assay: ELISA naked peptide; scFv 1 ug/mL; repII
Protocol: as §1, §2

naked peptide KNNVRQFAS = target: T18, naked peptide KNNVRQFAS; assay: ELISA naked peptide; scFv 1 ug/mL; repII
Protocol: as §1, §2

[3] = target: T19, Pep1-48, N-terminal domain 1 of CCR9, …; assay: BLI, scFv on NTA biosensor, 1:1 global fit
Protocol: The affinity between the CCR9-N-terminal domain 1 of CCR9 and the different scFvs was determined by Bio-Layer Interferometry (BLI), a technique that allows quantitative and qualitative measurement of biomolecular interactions in real-time. Briefly, scFv were immobilized onto NTA Biosensor (Sartorius) and quantification was performed in an Octet RED384 (Sartorius). scFv were dissolved in PBS (150 mM NaCl, 38 mM Na2HPO4, 12 mM NaH2PO4, pH 7.2) and a buffer containing 0.03% Tween-20 in PBS, pH 7.2 was used for baseline steps.

[4] = target: T20, biotin-peptide TDFTSPIPNM; assay: ELISA biotin-peptide; scFv 10 ug/mL; repII
Protocol: as §1
(§3) ELISA with biotin-conjugated peptides (5 μg/mL) was performed very similar to described above with minor modifications.

[5] = target: T21, biotin-peptide TSPIPNMADD; assay: ELISA biotin-peptide; scFv 10 ug/mL; repII
Protocol: as §1, §3

[6] = target: T22, biotin-peptide IPNMADDYGS; assay: ELISA biotin-peptide; scFv 10 ug/mL; repII
Protocol: as §1, §3

[7] = target: T23, biotin-peptide TSSMEDYVNF; assay: ELISA biotin-peptide; scFv 10 ug/mL; repII
Protocol: as §1, §3

[8] = target: T24, biotin-peptide SSMEDYVNFN; assay: ELISA biotin-peptide; scFv 10 ug/mL; repII
Protocol: as §1, §3

[9] = target: T25, biotin-peptide YCEKNNVRQF; assay: ELISA biotin-peptide; scFv 10 ug/mL; repII
Protocol: as §1, §3

Row | OD450 [1] [OD] | OD450 [2] [OD] | OD450 (naked peptide MTPTDFTSPI) [OD] | OD450 (naked peptide TDFTSPIPNM) [OD] | OD450 (naked peptide TSPIPNMADD) [OD] | OD450 (naked peptide IPNMADDYGS) [OD] | OD450 (naked peptide MADDYGSEST) [OD] | OD450 (naked peptide DYGSESTSSM) [OD] | OD450 (naked peptide SESTSSMEDY) [OD] | OD450 (naked peptide TSSMEDYVNF) [OD] | OD450 (naked peptide SSMEDYVNFN) [OD] | OD450 (naked peptide SMEDYVNFNF) [OD] | OD450 (naked peptide MEDYVNFNFT) [OD] | OD450 (naked peptide YVNFNFTDFY) [OD] | OD450 (naked peptide FNFTDFYCEK) [OD] | OD450 (naked peptide TDFYCEKNNV) [OD] | OD450 (naked peptide YCEKNNVRQF) [OD] | OD450 (naked peptide KNNVRQFAS) [OD] | Kd [3] [nM] | koff [3] [s⁻¹] | also measured | Binder
1 | 1.38 | 0.11 | 0.04 | 0.08 | 0.04 | 0.04 | 0.04 | 0.03 | 0.04 | 0.03 | 0.08 | 0.07 | 0.06 | 0.01 | 0.07 | 0.04 | 0.03 | 0.04 | 33.1 | 0.012 | kon [3]: 364000 M⁻¹ s⁻¹; OD450 [4]: 0.11 OD; OD450 [5]: 1.69 OD; OD450 [6]: 1.47 OD; OD450 [7]: 0.12 OD; OD450 [8]: 0.12 OD; OD450 [9]: 0.09 OD | B1
2 | 0.05 | 2.22 | 0.04 | 0.04 | 0.02 | 0.02 | 0.03 | 0.02 | 0.03 | 0.03 | 0.99 | 1.48 | 0.86 | 0.02 | 0.03 | 0.03 | 0.03 | 0.03 | 6.25 | 0.00168 | kon [3]: 268000 M⁻¹ s⁻¹; OD450 [4]: 0.09 OD; OD450 [5]: 0.06 OD; OD450 [6]: 0.1 OD; OD450 [7]: 1.92 OD; OD450 [8]: 2.3 OD; OD450 [9]: 0.06 OD | B2
